# According to patent US7524668B1, “Crystal of human beta secretase having monoclinic space group symmetry C2 and methods for crystallization thereof” (Elan Pharmaceuticals, Inc., priority 2001, dated 2009):
# Molecular target: T1, beta secretase (Homo sapiens, UniProt P56817)
# T1 construct: a homogeneous preparation of beta secretase with V^40 as an N-terminus could be made; made in house; host or cells: CHO-K1 cells; secreted, purified, then cleaved in vitro with HIV-1 protease
# Test: beta secretase activity assay by HPLC analysis of the products
# Assay type: biochemical
# Details: CHO cell derived human beta secretase cleaved at F39-V40 by HIV-1 protease, compared with unprocessed/non-treated enzyme
# Protocol: Cleavage of Beta Secretase by HIV Protease. It was reasoned that a homogeneous preparation of beta secretase with V^40 as an N-terminus could be made if conditions could be found to bring the cleavage to completion. The optimal conditions for cleavage were determined by examining the N-terminal sequence of beta secretase after incubation with HIV-1 protease in various conditions. These included a pH range of 4-7, urea concentrations of 0.5-3.0 M, and time increments of 15 minutes, up to 2 hours incubation at 37° C. […] The processed enzyme was separated from the other components of the reaction mixture by using an affinity column based on the synthetic peptide shown in FIG. 2 and dialysis.
# Purified HIV-1 protease treated (and non-treated) beta secretase were assayed for activity by HPLC analysis of the products.
molecule,measurement,value
HIV-1 protease treated beta secretase: CHO cell expressed recombinant human beta secretase proteolytically cleaved with HIV protease at the F39-V40 bond (SEQ ID NO:5) (protein) VEMVDNLRGKSGQGYYVEMTVGSPPQTLNILVDTGSSNFAVGAAPHPFLHRYYQRQLSSTYRDLRKGVYVPYTQGKWEGELGTDLVSIPHGPNVTVRANIAAITESDKFFINGSNWEGILGLAYAEIARPDDSLEPFFDSLVKQTHVPNLFSLQLCGAGFPLNQSEVLASVGGSMIIGGIDHSLYTGSLWYTPIRREWYYEVIIVRVEINGQDLKMDCKEYNYDKSIVDSGTTNLRLPKKVFEAAVKSIKAASSTEKFPDGFWLGEQLVCWQAGTTPWNIFPVISLYLMGEVTNQSFRITILPQQYLRPVEDVATSQDDCYKFAISQSSTGTVMGAVIMEGFYVVFDRARKRIGFAVSACHVHDEFRTAAVEGPFVTLDMEDCGYNIPQTDESHHHHHH,more enzymatic activity than non-treated beta secretase,10-20%
